Series [1] can be described thus: dual luciferase Sox2 reporter. The following applies: glycan lost; control: untreated / control siRNA / scrambled control.
Series [2] is described as follows: western blot, S2VP10 and L3.6PL. Particulars: glycan lost; control: untreated cells. Background: In western blotting, separated proteins are transferred to a membrane and probed.
Series [3] can be described thus: cycloheximide chase, western blot, endogenous Sox2. The following applies: glycan lost; control: untreated / scrambled control S2VP10.
The nature of a further series: western blot, MIA-PACA2. Particulars: glycan lost; control: wild-type Sox2 overexpression.

As to SOX2: OSMI, the “other: transcriptional activity” value in series [1] is recorded as “decreases”. In addition, the expression_or_secretion result in series [2] was “decreases”. The degradation_or_half_life entry in series [3] is on record as “decreases”.
With SOX2: S246A, the expression_or_secretion result in the series “western blot, MIA-PACA2” is “decreases”.
Consider SOX2: siOGT, for which the “other: transcriptional activity” value in series [1] is “decreases”.

These data come from article PMC6587167.
